Measurements reported in US20040038882A1, “Sgk2 and sgk3 used as diagnostic and therapeutic targets” (priority 2000, published 2004).

Columns and labels:
[1] = tested on: epithelial Na^+-channel, α-ENaC, β-ENaC, and γ-ENaC (rENaC); assay: Dual-electrode voltage clip, amiloride-sensitive Na+-current in oocytes expressing ENaC; format: cell-based, Xenopus laevis; settings: for activation of the Na^+-channel rENaC by hsgk2 and hsgk3: kinase inhibitor; for activation of the Na^+-channel rENaC by hsgk2 and hsgk3 / amiloride-inhibitable current, Iamil, through the Na^+-channel, rENaC: FIG. 1; for amiloride-inhibitable current, Iamil, through the Na^+-channel, rENaC: coexpression with kinase; for Na^+-current (INa): oocytes injected with α-ENaC, β-ENaC, and γ-ENaC plus kinase, mean ± SEM, n=7
Method: (§1) Each of the oocytes involved was injected with 1 ng cRNA from α-ENaC, β-ENaC, and γ-ENaC, Kv1.3, or minK, both with and without simultaneous injection of the kinases hsgk1, hsgk2, and hsgk3. Dual-electrode voltage-clip and current-clip experiments could be undertaken 2 to 4 days following injection. Na^+-currents (in the case of ENaC) and K^+-currents (in the case of Kv1.3 and minK) were filtered at 10 Hz and recorded using a recorder. The experiments were normally conducted on the second day following cRNA-injection. The bath solution contained 96 mM NaCl, 2 mM KCl, 1.8 mM CaCl2, 1 mM MgCl2, and 5 mM HEPES at a pH of 7.5 and a holding potential of −80 mV. In all experiments, bath pH was set by titration with HCl or NaOH. Bath-liquid flow rate was set to 20 ml/min, which provided for a complete change of solution within 10 to 15 seconds. All data were output in the form of arithmetic means±SEM.
(§2) In order to investigate the effects of hsgk1, hsgk2, or hsgk3, the mRNA of the respective kinases, together with the mRNA of the epithelial Na^+-channel, α-ENaC, β-ENaC, and γ-ENaC, or the voltage-dependent K^+-channel, Kv1.3, or the minK-channel, were injected into Xenopus oocytes and the amiloride-sensitive Na^+-current, INa, and voltage-activated K^+-current, IK, subsequently determined.

hsgk2 and hsgk3 = assay: Kinase inhibitors on hsgk stimulation of channel activity in oocytes; format: cell-based, Xenopus laevis; settings: protein-kinase inhibitor added; Table 1, FIGS. 1 and 2
Method: as §1, §2

[2] = tested on: human embryonic kidney cells (HEK-cells); assay: Survival of HEK-cells after extraction of fetal calf serum; format: cell-based; settings: FCS extracted, FIG. 3
Method: According to FIG. 3, extracting fetal calf serum (FCS) from human embryonic kidney cells (HEK-cells) (Lewis, et al (1984); Phillips, et al (1982)) reduces the total number of cells present due to cell mortality, as may be seen by comparing the black bars to the dotted bars, where FIG. 3 depicts the situations after 24 hours and 48 hours, respectively. This reduction is lessened by the insulin-like growth factor (IGF1), represented by the white bars. The effect of IGF1 is eliminated by the simultaneous inhibition of K^+-channels using margatoxin (MT), represented by the hatched bars. […] The activation of the Kv1.3-channel mediated by sgk2 and sgk3 thus has an antiapoptotic effect, and lack of an sgk2-effect and sgk3-effect would thus cause an increase in cell mortality, as occurs in the case of, for example, neurodegeneration. Conversely, activators of sgk2 and sgk3 may be employed for preventing apoptotic cell death in the case of neurodegeneration. Since Kv1.3 also plays a major role in regulating lymphocyte proliferation and lymphocyte function, inhibitors or activators of these kinases may be employed for affecting the immune system in the case of, e.g., autoimmune diseases or immune deficiency.

[3] = tested on: voltage-dependent K^+-channel, Kv1.3; assay: Dual-electrode voltage clip, voltage-activated K+-current in oocytes expressing Kv1.3; format: cell-based, Xenopus laevis; settings: oocytes injected with Kv1.3 plus kinase; mean ± SEM, n=7
Method: as §1, §2

minK-channel = assay: Dual-electrode voltage clip, K+-current in oocytes expressing minK; format: cell-based, Xenopus laevis; settings: oocytes injected with minK plus kinase; mean ± SEM, n=7
Method: as §1, §2

Molecule	Na^+-current (INa) [1] [μA]	K^+-current (IK), Kv1.3 [3] [μA]	K^+-current (IK), MinK (minK-channel) [μA]	other results
COc1ccc2c(c[n+](C)c3c4cc5c(cc4ccc23)OCO5)c1OC [chelerythrine, reference compound]	–	–	–	activation of the Na^+-channel rENaC by hsgk2 and hsgk3 [1]: inhibit activation of the Na^+-channel; stimulating effects of hsgk on ENaC-activity, Kv1.3-activity and minK-activity (hsgk2 and hsgk3): totally prevented
CN[C@@H]1C[C@H]2O[C@@](C)([C@@H]1OC)n1c3ccccc3c3c4c(c5c6ccccc6n2c5c31)C(=O)NC4 [staurosporine, reference compound]	–	–	–	activation of the Na^+-channel rENaC by hsgk2 and hsgk3 [1]: inhibit activation of the Na^+-channel; stimulating effects of hsgk on ENaC-activity, Kv1.3-activity and minK-activity (hsgk2 and hsgk3): totally prevented
IGF1: insulin-like growth factor	–	–	–	reduction of total number of cells due to cell mortality ([2]; after 24 hours and 48 hours): lessened
margatoxin (TIINVKCTSPKQCLPPCKAQFGQSAGAKCMNGKCKCYPH; UniProt P40755 1-39, looked up) [reference compound]	–	–	–	effect of IGF1 on cell-number reduction ([2]; IGF1 plus simultaneous inhibition of K^+-channels, 24 and 48 hours): eliminated
hsgk2: human serum-and-glucocorticoid-dependent kinase 2, coexpressed in oocytes by mRNA injection (protein, UniProt Q9HBY8 1-367, looked up) Serine/threonine-protein …: MNSSPAGTPSPQPSRANGNINLGPSANPNAQPTDFDFLKVIGKGNYGKVLLAKRKSDGAFYAVKVLQKKSILKKKEQSHIMAERSVLLKNVRHPFLVGLRYSFQTPEKLYFVLDYVNGGELFFHLQRERRFLEPRARFYAAEVASAIGYLHSLNIIYRDLKPENILLDCQGHVVLTDFGLCKEGVEPEDTTSTFCGTPEYLAPEVLRKEPYDRAVDWWCLGAVLYEMLHGLPPFYSQDVSQMYENILHQPLQIPGGRTVAACDLLQSLLHKDQRQRLGSKADFLEIKNHVFFSPINWDDLYHKRLTPPFNPNVTGPADLKHFDPEFTQEAVSKSIGCTPDTVASSSGASSAFLGFSYAPEDDDILDC	9.4 ± 1.7	6.5 ± 0.6	0.97 ± 0.1	amiloride-inhibitable current, Iamil, through the Na^+-channel, rENaC [1]: increased significantly
hsgk1: human serum-and-glucocorticoid-dependent kinase 1, coexpressed in oocytes by mRNA injection (protein, UniProt O00141 1-431, looked up) Serine/threonine-protein …: MTVKTEAAKGTLTYSRMRGMVAILIAFMKQRRMGLNDFIQKIANNSYACKHPEVQSILKISQPQEPELMNANPSPPPSPSQQINLGPSSNPHAKPSDFHFLKVIGKGSFGKVLLARHKAEEVFYAVKVLQKKAILKKKEEKHIMSERNVLLKNVKHPFLVGLHFSFQTADKLYFVLDYINGGELFYHLQRERCFLEPRARFYAAEIASALGYLHSLNIVYRDLKPENILLDSQGHIVLTDFGLCKENIEHNSTTSTFCGTPEYLAPEVLHKQPYDRTVDWWCLGAVLYEMLYGLPPFYSRNTAEMYDNILNKPLQLKPNITNSARHLLEGLLQKDRTKRLGAKDDFMEIKSHVFFSLINWDDLINKKITPPFNPNVSGPNDLRHFDPEFTEEPVPNSIGKSPDSVLVTASVKEAAEAFLGFSYAPPTDSFL	5.9 ± 1.0	8.4 ± 1.8	1.16 ± 0.11	–
hsgk3: human serum-and-glucocorticoid-dependent kinase 3, coexpressed in oocytes by mRNA injection (protein, UniProt Q96BR1 1-496, looked up) Serine/threonine-protein …: MQRDHTMDYKESCPSVSIPSSDEHREKKKRFTVYKVLVSVGRSEWFVFRRYAEFDKLYNTLKKQFPAMALKIPAKRIFGDNFDPDFIKQRRAGLNEFIQNLVRYPELYNHPDVRAFLQMDSPKHQSDPSEDEDERSSQKLHSTSQNINLGPSGNPHAKPTDFDFLKVIGKGSFGKVLLAKRKLDGKFYAVKVLQKKIVLNRKEQKHIMAERNVLLKNVKHPFLVGLHYSFQTTEKLYFVLDFVNGGELFFHLQRERSFPEHRARFYAAEIASALGYLHSIKIVYRDLKPENILLDSVGHVVLTDFGLCKEGIAISDTTTTFCGTPEYLAPEVIRKQPYDNTVDWWCLGAVLYEMLYGLPPFYCRDVAEMYDNILHKPLSLRPGVSLTAWSILEELLEKDRQNRLGAKEDFLEIQNHPFFESLSWADLVQKKIPPPFNPNVAGPDDIRNFDTAFTEETVPYSVCVSSDYSIVNASVLEADDAFVGFSYAPPSEDLFL	4.5 ± 0.8	8.2 ± 0.7	1.1 ± 0.11	amiloride-inhibitable current, Iamil, through the Na^+-channel, rENaC [1]: increased significantly
